Conditions in all cases: both partners purified
The target of assay [1] is T1, His-tagged PEX5 (110–230) (UniProt P50542 110-230).
T1 construct: cytosolic peroxisomal targeting protein PEX5, stretch of the intrinsically disordered N-terminal domain, residues 110-230; His-tagged samples were made with the pETM10 vector; also called hPEX5 (110–230); source: E. coli BL21 (DE3), purified (Ni-NTA, SEC); not shown: His6, N-terminal, kept
As to the kind of experiment: solution-phase LSPR peak shift of nanoparticles (UV–vis); kinetic: peak position scanned every 20–30 s for 25 min after manual addition of PEX14 to immobilised hPEX5 (PEX14:PEX5 10:1 for 1–113), exponential fit; ka and kd derived from kobs and KD; 20 mM sodium phosphate, 100 mM NaCl, 0.025 wt % Tween 20, pH 7.9.

Assay [2] has as its target T2, His-tagged PEX5 (1–113) (UniProt P50542 1-113).
T2 construct: cytosolic peroxisomal targeting protein PEX5, stretch of the intrinsically disordered N-terminal domain, residues 1-113; His-tagged samples were made with the pETM10 vector; also called hPEX5 (1–113); source: E. coli BL21 (DE3), purified (Ni-NTA, SEC); not shown: His6, N-terminal, kept
The description is as above.

For assay [3], the target named is T2, His-tagged PEX5 (1–113). As to the kind of experiment: solution-phase LSPR peak shift of nanoparticles (UV–vis); binding curve near equilibrium: PEX14 (16–80) titrated onto hPEX5 construct (0.015 μM) immobilised on nanobiosensors (~0.025 nM); 20 mM sodium phosphate, 100 mM NaCl, 0.025 wt % Tween 20, pH 7.9; fit with the Hill–Waud equation.

Results on one molecule are retold here after paper PMC11959585, “Modular Nanoparticle Platform for Solution-Phase Optical Sensing of Protein–Protein Interactions” (ACS Applied Optical Materials, 2025).

B1: PEX14 (16–80) (domain or fragment, UniProt O75381 16-80, looked up)
chain: TPGSENVLPREPLIATAVKFLQNSRVRQSPLATRRAFLKKKGLTDEEIDMAFQQSGTAADEPSSL
notes: peroxisomal membrane-associated import protein PEX14, globular N-terminal domain, residues 16-80; also called globular N-terminal domain of PEX14; source: E. coli BL21 (DE3), purified (Ni-NTA, TEV cleavage, reverse Ni column, SEC); not shown: His6, N-terminal, cleaved
For orientation: koff means the first-order rate constant of dissociation. A word on the kon: it is a measure of how fast the partners come together. As usually defined, the Kd is the concentration at which binding is half-saturated. As for B1, in assay [1], the “ka near the first inflection point” value stood at 12400 M^–1 s^–1 and the “kd near the first inflection point” value was 0.00212 s^–1. Moreover, in the assay with His-tagged PEX5 (1–113) [2], the koff turned out to be 0.00262 s⁻¹ and the kon was 9060 M⁻¹ s⁻¹. Besides, the Kd with His-tagged PEX5 (1–113) [3] is 289 nM.
